Target: T1, his 태그가 부착된 재조합 인간 CD38 (recombinant human CD38 extracellular domain, His-tagged) (human, UniProt P28907 43-300, biotinylated in part of the ForteBio assays (EZ-Link sulfo-NHS biotinylation))
T1 construct: Bought from Sino Biological; also called rhCD38; rhCD38-his; not shown: histidine tag
T1 sequence: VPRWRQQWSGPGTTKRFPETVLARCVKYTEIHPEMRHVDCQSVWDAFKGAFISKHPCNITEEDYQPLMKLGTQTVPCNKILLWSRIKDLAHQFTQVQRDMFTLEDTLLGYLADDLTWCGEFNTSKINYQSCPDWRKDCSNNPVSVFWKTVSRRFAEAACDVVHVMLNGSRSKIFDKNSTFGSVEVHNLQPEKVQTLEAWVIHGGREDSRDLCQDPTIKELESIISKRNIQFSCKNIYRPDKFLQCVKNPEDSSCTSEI
Test: affinity on recombinant human CD38 extracellular domain (Octet/Biacore); order of magnitude told in text

Kd: ~1 nM
B1: aCD38-b-329 (antibody, human IgG1, V domains shown)
VH: QLQLQESGPGLVKPSETLSLTCTVSGGSISSSDYYWGWIRQPPGKGLEWIGSIYYSGSTYYNPSLKSRVTISVDTSKNQFSLKLSSVTAADTAVYYCARGQYSSGWYAYPFDMWGQGTMVTVSS
VL: EIVLTQSPGTLSLSPGERATLSCRASQSVRSSYLAWYQQKPGQAPRLLIYGASSRATGIPDRFSGSGSGTDFTLTISRLEPEDFAVYYCQQDGAVFTFGGGTKVEIK
notes: Human IgG1 with kappa constant region (P01857, P01834)

Source: KR20200019669A (dated 2020)
